Measurements reported in patent US20260174885A1.

What was measured:
[1] = molecular target: human epidermal growth factor receptor (human EGFR) (human) (UniProt P00533); experiment: flow cytometry, BD FACS Aria; WI-38 cells stained with PE-anti hEGFR antibody for 30 minutes on ice
[2] = molecular target: human epidermal growth factor receptor (human EGFR) (human) (UniProt P00533); experiment: flow cytometry, Beckman Coulter CytoFLEX S; U87MG cells stained with PE-anti hEGFR antibody for 30 minutes on ice
[3] = molecular target: human epidermal growth factor receptor (human EGFR) (human) (UniProt P00533); experiment: flow cytometry, Beckman Coulter CytoFLEX S; WI-38 cells stained with PE-anti hEGFR antibody for 30 minutes on ice
[4] = molecular target: human epidermal growth factor receptor (human EGFR) (human) (UniProt P00533); experiment: flow cytometry, BD FACS Aria; MCF-7 cells (low EGFR expression) stained with PE-anti hEGFR antibody for 30 minutes on ice
[5] = molecular target: human epidermal growth factor receptor (human EGFR) (human) (UniProt P00533); experiment: flow cytometry, BD FACS Aria; RencaEGFR M1 H cells (human EGFR on the cell surface) stained with PE-anti hEGFR antibody for 30 minutes on ice

MFI [1]: 53300
MFI [2]: 1020
MFI [3]: 1100
MFI [4]: 2670
MFI [5]: 834000
Substance: PE-anti hEGFR antibody (Biolegend, Cat #352904)
